Data from paper PMC8629192 (bioRxiv, 2021).

Molecular target: SARS-CoV-2 spike RBD-Fc recombinant protein (used for ELISA) (SARS-CoV-2, UniProt P0DTC2)
Experiment: ELISA

B1: LRRC15-His (natural protein)
chain: YHGCPSECTCSRASQVECTGARIVAVPTPLPWNAMSLQILNTHITELNESPFLNISALIALRIEKNELSRITPGAFRNLGSLRYLSLANNKLQVLPIGLFQGLDSLESLLLSSNQLLQIQPAHFSQCSNLKELQLHGNHLEYIPDGAFDHLVGLTKLNLGKNSLTHISPRVFQHLGNLQVLRLYENRLTDIPMGTFDGLVNLQELALQQNQIGLLSPGLFHNNHNLQRLYLSNNHISQLPPSVFMQLPQLNRLTLFGNSLKELSPGIFGPMPNLRELWLYDNHISSLPDNVFSNLRQLQVLILSRNQISFISPGAFNGLTELRELSLHTNALQDLDGNVFRMLANLQNISLQNNRLRQLPGNIFANVNGLMAIQLQNNQLENLPLGIFDHLGKLCELRLYDNPWRCDSDILPLRNWLLLNQPRLGTDTVPVCFSPANVRGQSLIIINVNVAVPSVHVPEVPSYPETPWYPDTPSYPDTTSVSSTTELTSPVEDYTDLTTIQVTDDRSVWGMTQAQSG
binding result: binds
